Assay results as given in patent US20230183665A1, “THERMOSTABLE GLUCOCEREBROSIDASE” (TEIKYO UNIVERSITY, priority 2020, published 2023).

B1: RGC1: rice-derived glucocerebrosidase purified from rice stems; identical to Os3BGlu6, belongs to GH1; SEQ ID NO: 1 (protein)
chain: MGRIKSSSGRCSTARLEAVAVLVVVFGVASSSLRGCIAQQSGGGLTRGSFPEGFVFGTASAAYQYEGAVKEDGRGQTIWDTFAHTFGKITDFSNADVAVDQYHRFEEDIQLMADMGMDAYRFSIAWSRIYPNGVGQVNQAGIDHYNKLIDALLAKGIQPYVTLYHWDLPQALEDKYKGWLDRQIVDDFAAYAETCFREFGDRVKHWITLNEPHTVAIQGYDAGLQAPGRCSVLLHLYCKAGNSGTEPYVVAHHFILAHAAAASIYRTKYKATQNGQLGIAFDVMWFEPMSNTTIDIEAAKRAQEFQLGWFADPFFFGDYPATMRARVGERLPRFTADEAAVVKGALDFVGINHYTTYYTRHNNTNIIGTLLNNTLADTGTVSLPFKNGKPIGDRANSIWLYIVPRGMRSLMNYVKERYNSPPVYITENGMDDSNNPFISIKDALKDSKRIKYHNDYLTNLAASIKEDGCDVRGYFAWSLLDNWEWAAGYSSRFGLYFVDYKDNLKRYPKNSVQWFKALLKT
modifications: Glycine max (L.) Merr. Enrei
B2: SGC1: soybean-derived glucocerebrosidase purified from soybean stems; identical to β-glucosidase 40, belongs to GH1; SEQ ID NO: 2 (protein)
chain: MAFRGGTMLILTMMALLEIQICSSEINRGNFPNGFVFGTASSAFQYEGAVKEDGRGPSVWDTFSHTFGKIIDFSNADVAVDQYHRYEEDIQLMKDMGMDAYRFSISWSRIFPNGYGQINQAGVDHYNKLINALLAKGIEPYVTLYHWDLPQALENKYSGWLNASIIMDFATYAETCFQKFGDRVKHWITFNEPHTFATQGYDVGLQAPGRCSILLHLFCRAGNSATEPYIVAHNVLLSHATVADIYRKKYKKIQGGSLGVAFDVIWYEPLTNTKEDIDAAQRAQDFQLGWFLDPLMFGDYPSSMRTRVGSRLPKFSQSEAALVKGSLDFVGINHYTTFYAKDNSTNLIGTLLHDSIADSGAVTLPFNGTKAISERASSIWLYIVPQSMRSLMIYIKQKYGNPPVYITENGMDDPNSIFISIKDALKDEKRIRYHTGYLSYLLASIKDGCNVKGYFVWSLLDNWEWSAGYTSRFGLYFVDYKDNLKRYPKQSVEWFKNFLKPTK
modifications: Oryza sativa L. cv. Nipponbare

Assays:
[1] = Thermostability: relative residual glucocerebrosidase activity after incubation at pH 5 and pH 7 (Examples 6, 13); type: physicochemical
Method: The glucocerebrosidase activity of the fraction was measured as follows: a predetermined amount of sample was added to a 50 mM acetate buffer solution (pH 5.5) containing 100 μM glucosylceramide (cerebroside B), 0.1% Tween 20, and 0.05% sodium cholate, and incubated at 37° C. for 15 minutes. Subsequently, a 4-fold amount of ethanol was added to the obtained reaction solution, mixed therewith, and then centrifuged at 15000 rpm for 20 minutes. The centrifuged supernatant was subjected to high-performance liquid chromatography analysis. […] The amount of ceramide was determined by using, as a standard, ceramide generated from cerebroside B by imiglucerase (manufactured by Sanofi S. A.), human-derived glucocerebrosidase. […] Glucocerebrosidase activity per mL of the enzyme solution was calculated when the amount of the enzyme that generated 1 μmol of ceramide for 1 minute in the enzymatic reaction solution was defined as 1 unit (U).
RGC1 obtained in Example 2 and imiglucerase were each incubated at pH 5 simulating lysosome (50 mM acetate buffer solution (pH 5.0) containing 0.1% Triton X-100 and 0.05% sodium cholate) at 37° C. for 6 to 106 hours or at pH 7 simulating cytoplasm (50 mM potassium phosphate buffer solution (pH 7.0) containing 0.1% Triton X-100 and 0.05% sodium cholate) at 37° C. for 4 to 48 hours. […] This test was conducted three times, and an average value was determined therefrom. […]

[2] = Optimum temperature for glucocerebrosidase activity (Examples 5, 12, 20); type: biochemical
Method: The glucocerebrosidase activity of the fraction was measured as follows: a predetermined amount of sample was added to a 50 mM acetate buffer solution (pH 5.5) containing 100 μM glucosylceramide (cerebroside B), 0.1% Tween 20, and 0.05% sodium cholate, and incubated at 37° C. for 15 minutes. Subsequently, a 4-fold amount of ethanol was added to the obtained reaction solution, mixed therewith, and then centrifuged at 15000 rpm for 20 minutes. The centrifuged supernatant was subjected to high-performance liquid chromatography analysis. In the high-performance liquid chromatography analysis, the sample was injected to TSKgel ODS-120T column (4.6 mm×30 cm), and a solvent having an ethanol concentration of 83% was flowed at a flow rate of 0.8 mL/min, followed by detection in a UV detector (ultraviolet absorption wavelength: 215 nm) to thereby measure the amount of ceramide newly generated through enzymatic reaction. The amount of ceramide was determined by using, as a standard, ceramide generated from cerebroside B by imiglucerase (manufactured by Sanofi S. A.), human-derived glucocerebrosidase. The molecular weight of the generated ceramide was examined by negative LC-MS (manufactured by Agilent Technologies, Inc.) to thereby confirm that it was ceramide generated from cerebroside B (ESI-MS m/z: 564.5[M-H]^−). Glucocerebrosidase activity per mL of the enzyme solution was calculated when the amount of the enzyme that generated 1 μmol of ceramide for 1 minute in the enzymatic reaction solution was defined as 1 unit (U).
RGC1 obtained in Example 2 and imiglucerase were each added to a 50 mM acetate buffer solution (pH 5.5) containing 100 μM glucosylceramide (cerebroside B), 0.1% Tween 20, and 0.05% sodium cholate, and incubated at each temperature for 15 minutes. Subsequently, a 4-fold amount of ethanol was added to the obtained reaction solution, mixed therewith, and then centrifuged under a condition of 15000 rpm for 20 minutes. The supernatant was subjected to high-performance liquid chromatography analysis to measure the amount of ceramide generated through enzymatic reaction. The high-performance liquid chromatography analysis was carried out in the same manner as in Example 2. The amount of ceramide and enzymatic activity were also calculated in the same manner as in Example 2. A temperature that attained the highest glucocerebrosidase activity was regarded as the optimum temperature. This test was conducted three times, and an average value was determined therefrom.
The optimum temperatures for the glucocerebrosidase activity of SGC1 obtained in Example 11 and imiglucerase were confirmed by the same method as in Example 5.
Enzyme extracts derived from various plants which were obtained in accordance with Example 19, the purified rice-derived RGC1 mentioned above and the purified soybean-derived SGC1 mentioned above were each added to a 50 mM sodium acetate buffer solution (pH 5.5) containing 100 μM glucosylceramide (cerebroside B), 0.1% Tween 20, and 0.05% sodium cholate, and incubated at each temperature for 15 minutes. Subsequently, a 4-fold amount of ethanol was added to the obtained reaction solution, mixed therewith, and then centrifuged at 15000 rpm for 20 minutes. The supernatant was subjected to high-performance liquid chromatography analysis to measure the amount of ceramide generated through enzymatic reaction. The high-performance liquid chromatography analysis was carried out in the same manner as in Example 5. The amount of ceramide and enzymatic activity were also calculated in the same manner as in Example 5. As a result, a temperature that attained the highest glucocerebrosidase activity was regarded as the optimum temperature. This test was conducted three times, and an average value was determined therefrom.

[3] = Example 20, 100 μM cerebroside B, pH 5.5, 15 minutes at each temperature, average of three tests

Molecule | stability (relative residual activity) compared with imiglucerase ([1]; 37° C., pH 5 for 6 to 106 hours, pH 7 for 4 to 48 hours, FIGS. 1 and 2) | Optimum temperature (° C.) ([2]; Example 5, 100 μM cerebroside B, pH 5.5, 15 minutes at each temperature, average of three tests) | Optimum temperature (° C.) [2, 3] | stability (relative residual activity) compared with imiglucerase ([1]; 45° C., pH 5 for 1 to 31 hours, pH 7 for 0.3 to 5 hours, FIGS. 3 and 4) | Optimum temperature (° C.) ([2]; Example 12, same method as Example 5)
B1 | evidently superior in stability to imiglucerase | 54.0 °C | 54.0 °C |  | 
B2 |  |  | 64.0 °C | evidently much superior in stability to imiglucerase | 64.0 °C
